Measurements taken from patent US5773001 (American Cyanamid Company, dated 1998).

Experiments:
soluble CD33 antigen = soluble CD33 antigen (Homo sapiens (Human), UniProt P20138); experiment: inhibition of binding to HL60 cells by pre-incubation with soluble antigen
CD33 antigen (human) = CD33 antigen (human) (UniProt P20138); experiment: competition binding on HL60 cells against murine antibody
[1] = molecular target: T1, polymorphic epithelial mucin (PEM) (human, UniProt P15941); experiment: competition EIA on PEM-coated plates; competitor biotinylated CTM01 MAb
[2] = molecular target: T1, polymorphic epithelial mucin (PEM); experiment: reactivity of affinity column fractions with the CTM01 MAb

B1: h-P67.6 (antibody, V domains shown)
VH: EVQLVQSGAEVKKPGSSVKVSCKASGYTITDSNIHWVRQAPGQSLEWIGYIYPYNGGTDYNQKFKNRATLTVDNPTNTAYMELSSLRSEDTDFYYCVNGNPWLAYWGQGTLVTVSS
VL: DIQLTQSPSTLSASVGDRVTITCRASESLDNYGIRFLTWFQQKPGKAPKLLMYAASNQGSGVPSRFSGSGSGTEFTLTISSLQPDDFATYYCQQTKEVPWSFGQGTKVEVKR
**Q.** Does B1 bind (soluble CD33 antigen)?
**A.** binds

**Q.** What about the loss in immunoaffinity against the murine antibody (CD33 antigen (human)) of the same binder?
**A.** 50%

B2: gL1gH2 (antibody, V domains shown)
VH: QIQLVQSGAEVKKPGSSVKVSCKASGYTFTDYYINWMRQAPGQGLEWIGWIDPGSGNTKYNEKFKGRATLTVDTSTNTAYMELSSLRSEDTAFYFCAREKTTYYYAMDYWGQGTLVTVSS
VL: DIQMTQSPSTLSASVGDRVTITCRSSKSLLHSNGDTFLYWFQQKPGKAPKLLMYRMSNLASGVPSRFSGSGSGTEFTLTISSLQPDDFATYYCMQHLEYPFTFGQGTKVEVKR
**Q.** Does B2 bind [1]?
**A.** binds

B3: CTM01 MAb (antibody, V domains shown)
VH: QIQLQQSGPELVKPGASVKISCKASGYTFTDYYINWMKQKPGQGLEWIGWIDPGSGNTKYNEKFKGKATLTVDTSSSTAYMQLSSLTSEDTAVYFCAREKTTYYYAMDYWGQGTSVTVSA
VL: DIVMTQAAPSVPVTPGESLSISCRSSKSLLHSNGDTFLYWFLQRPGQSPQLLIYRMSNLASGVPDRFSGSGSGTAFTLRVSRVEAEDVGVYYCMQHLEYPFTFGAGTKLELKR
**Q.** Does B3 bind [2]?
**A.** binds
